The record followed here is patent US20250289905A1 (MIRIMGENE, published 2025).

Test [1] has as its target T1, human WARS1 recombinant protein (human, UniProt P23381 2-471, limits assumed).
T1 sequence: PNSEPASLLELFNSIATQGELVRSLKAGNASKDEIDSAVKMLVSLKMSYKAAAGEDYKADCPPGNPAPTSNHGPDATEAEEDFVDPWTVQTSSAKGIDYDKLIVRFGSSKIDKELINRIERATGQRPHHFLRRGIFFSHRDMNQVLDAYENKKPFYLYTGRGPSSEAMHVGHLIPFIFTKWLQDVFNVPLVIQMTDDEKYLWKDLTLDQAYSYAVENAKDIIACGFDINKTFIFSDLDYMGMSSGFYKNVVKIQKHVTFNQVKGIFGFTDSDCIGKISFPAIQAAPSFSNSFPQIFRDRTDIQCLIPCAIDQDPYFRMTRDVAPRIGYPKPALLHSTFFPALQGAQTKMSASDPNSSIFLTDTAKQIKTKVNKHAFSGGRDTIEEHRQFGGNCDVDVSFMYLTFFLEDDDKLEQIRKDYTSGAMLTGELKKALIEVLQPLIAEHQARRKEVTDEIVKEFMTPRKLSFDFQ
Briefly: cell-based or functional assay.

In test [2] the target is T2, rat-derived WARS1 recombinant protein (rat, UniProt Q6P7B0 1-481, limits assumed).
T2 construct: Recombinant, His-tagged (detected with anti-His tag antibody); construct not described; also called rat WARS1
T2 sequence (looked up): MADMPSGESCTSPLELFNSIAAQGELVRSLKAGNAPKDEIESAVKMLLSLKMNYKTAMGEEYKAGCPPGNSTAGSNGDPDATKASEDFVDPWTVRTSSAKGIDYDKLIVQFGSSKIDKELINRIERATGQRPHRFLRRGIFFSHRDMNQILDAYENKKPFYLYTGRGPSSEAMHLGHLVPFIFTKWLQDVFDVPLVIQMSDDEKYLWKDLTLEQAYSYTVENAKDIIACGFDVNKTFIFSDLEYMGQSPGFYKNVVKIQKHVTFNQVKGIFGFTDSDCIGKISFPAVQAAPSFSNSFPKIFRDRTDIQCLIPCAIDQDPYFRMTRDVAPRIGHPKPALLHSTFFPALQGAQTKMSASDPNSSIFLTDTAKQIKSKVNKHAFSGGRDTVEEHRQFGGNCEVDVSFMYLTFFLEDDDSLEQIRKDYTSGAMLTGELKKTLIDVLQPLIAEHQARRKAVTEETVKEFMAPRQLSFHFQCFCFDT
Nature of the test: western blot; recombinant protein. How it is done:
(§1) At this time, a WARS1 recombinant protein (human, mouse, pig, marmoset (NHP), or rat-derived), cell culture medium, and human or mouse serum were used as WARS1 protein samples. In particular, the cell culture medium was used by treating the human monocyte cell line, THP-1, or the mouse macrophage cell line, J774.1A, with LPS (lipopolysaccharide, 100 ng/ml) for 24 hours to induce an inflammatory response, and then the cell culture supernatant was obtained for use.
(§2) 30 μg of each of the WARS1 recombinant protein (human, mouse, pig, marmoset (NHP), or rat-derived), the cell supernatant obtained using the method above, and mouse or human serum was loaded onto 8% SDS-PAGE, then transferred to a PVDF membrane (Millipore). Afterwards, the membrane was reacted with 1 μg/ml of GKB101 or a variant antibody thereof for 1 hour each, then washed with TBST (TBS+Tween20) three times. Afterwards, it was reacted with a secondary antibody (anti-human IgG HRP, Millipore) for 1 hour, then washed with TBST three times to be treated with ECL (West® bright ECL, Advanta) to identify its protein expression (LAS-4000, Fujifilm).

Test [3] has as its target T3, mouse-derived WARS1 recombinant protein (mouse, UniProt P32921 1-481, limits assumed).
T3 construct: Recombinant, His-tagged (detected with anti-His tag antibody); construct not described; In the western blot also secreted WARS1 from J774A.1 supernatant and mouse serum; also called mouse WARS1
T3 sequence (looked up): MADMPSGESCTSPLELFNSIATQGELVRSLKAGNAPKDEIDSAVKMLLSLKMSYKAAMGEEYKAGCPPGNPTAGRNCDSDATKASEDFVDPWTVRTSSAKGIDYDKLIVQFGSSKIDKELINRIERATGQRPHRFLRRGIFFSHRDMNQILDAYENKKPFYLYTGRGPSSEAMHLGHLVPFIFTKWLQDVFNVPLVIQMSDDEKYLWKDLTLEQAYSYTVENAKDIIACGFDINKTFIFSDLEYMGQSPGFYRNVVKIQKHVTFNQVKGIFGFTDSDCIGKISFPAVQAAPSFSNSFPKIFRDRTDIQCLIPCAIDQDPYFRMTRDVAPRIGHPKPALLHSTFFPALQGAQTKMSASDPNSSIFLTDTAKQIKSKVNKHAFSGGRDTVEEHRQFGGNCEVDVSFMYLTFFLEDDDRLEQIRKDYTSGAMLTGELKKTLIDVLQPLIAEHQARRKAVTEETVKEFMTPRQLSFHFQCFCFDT
Nature of the test: western blot; recombinant protein, J774A.1 culture supernatant, mouse serum. How it is done:
as §1, §2
In general terms: Immunoblotting shows a protein as a band on a membrane.

Test [4] addresses T1, human WARS1 recombinant protein. Briefly: western blot; recombinant protein, THP-1 culture supernatant, human serum. How it is done:
as §1, §2

Test [5] has as its target T2, rat-derived WARS1 recombinant protein. Briefly: direct ELISA. How it is done:
(§3) Specifically, for direct ELISA, a 96-well plate (Maxisorp, Thermo Fisher) was coated with WARS1 having a 1 μg/ml concentration of a recombinant protein derived from human, marmoset (NHP), mouse, rat, and pig, and then blocked with PBS containing 1% BSA at room temperature for 1 hour. The GKB101 antibody or a variant antibody thereof was diluted in a concentration-dependent manner, added to each coated well, reacted at room temperature for 1 hour, and then washed four times with PBST (PBS+Tween20). Each well was treated and reacted for 1 hour with an antibody (anti-Human IgG, cell signaling) to which HRP is attached, and then washed with PBST. Lastly, after developing with a TMB substrate (BD), its absorbance was measured at 490 nm (NIVO) (FIGS. 4a to 5).
(In general: In an ELISA, binding on a coated surface is turned into a signal by an enzyme label.)

The target in test [6] is T1, human WARS1 recombinant protein. Briefly: direct ELISA. As to the method: as §3
For test [7], the target named is T3, mouse-derived WARS1 recombinant protein. Nature of the test: direct ELISA. How it is done: as §3

Bounds are passed on as bounds.

B1: GKB101 (antibody, V domains shown)
VH: EVQLLESGGGLVQPGGSLRLSCAASGFTFSSYDMSWVRQAPGKGLEWVSAISSGGSSIYYADSVKGRFTISRDNSKNTLYLQMNSLRAEDTAVYYCARDVAWDMLGDFDYWGQGTLVTVSS
VL: QSVLTQPPSASGTPGQRVTISCTGSSSNIGSNYVYWYQQLPGTAPKLLIYANSHRPSGVPDRFSGSKSGTSASLAISGLRSEDEADYYCGAWDDSLSAYVFGGGTKLTVLT
notes: Parent antibody; expressed in Expi293 cells; also called GKB101 antibody; anti-WARS1 antibody
Regarding B1, the “secretion of TNF-α in mouse macrophage J774A.1 cells” value in test [1] is at least 40%. In addition, the binding result in test [2] and in test [3] was “binds” each time.

B2: S53I (antibody, V domains shown)
VH: EVQLLESGGGLVQPGGSLRLSCAASGFTFSSYDMSWVRQAPGKGLEWVSAISSGGSSIYYADSVKGRFTISRDNSKNTLYLQMNSLRAEDTAVYYCARDVAWDMLGDFDYWGQGTLVTVSS
VL: QSVLTQPPSASGTPGQRVTISCTGSSSNIGSNYVYWYQQLPGTAPKLLIYANIHRPSGVPDRFSGSKSGTSASLAISGLRSEDEADYYCGAWDDSLSAYVFGGGTKLTVLT
notes: L-CDR2 variant of GKB101; also called S53I antibody
Turning to B2, the “secretion of TNF-α in mouse macrophage J774A.1 cells” value in test [1] was at least 40%. Besides, the binding result in test [2] and in test [3] was “binds” in each case.

B3: H54I (antibody, V domains shown)
VH: EVQLLESGGGLVQPGGSLRLSCAASGFTFSSYDMSWVRQAPGKGLEWVSAISSGGSSIYYADSVKGRFTISRDNSKNTLYLQMNSLRAEDTAVYYCARDVAWDMLGDFDYWGQGTLVTVSS
VL: QSVLTQPPSASGTPGQRVTISCTGSSSNIGSNYVYWYQQLPGTAPKLLIYANSIRPSGVPDRFSGSKSGTSASLAISGLRSEDEADYYCGAWDDSLSAYVFGGGTKLTVLT
notes: L-CDR2 variant of GKB101; also called H54I antibody
On to B3, for which the binding result in test [2], in test [4] and in test [3] was “binds” each time.

B4: H54F (antibody, V domains shown)
VH: EVQLLESGGGLVQPGGSLRLSCAASGFTFSSYDMSWVRQAPGKGLEWVSAISSGGSSIYYADSVKGRFTISRDNSKNTLYLQMNSLRAEDTAVYYCARDVAWDMLGDFDYWGQGTLVTVSS
VL: QSVLTQPPSASGTPGQRVTISCTGSSSNIGSNYVYWYQQLPGTAPKLLIYANSFRPSGVPDRFSGSKSGTSASLAISGLRSEDEADYYCGAWDDSLSAYVFGGGTKLTVLT
notes: L-CDR2 variant of GKB101; also called H54F antibody
Consider B4, for which the binding result in test [2], in test [4] and in test [3] was “binds” each time.

B5: SH/IL (antibody, V domains shown)
VH: EVQLLESGGGLVQPGGSLRLSCAASGFTFSSYDMSWVRQAPGKGLEWVSAISSGGSSIYYADSVKGRFTISRDNSKNTLYLQMNSLRAEDTAVYYCARDVAWDMLGDFDYWGQGTLVTVSS
VL: QSVLTQPPSASGTPGQRVTISCTGSSSNIGSNYVYWYQQLPGTAPKLLIYANILRPSGVPDRFSGSKSGTSASLAISGLRSEDEADYYCGAWDDSLSAYVFGGGTKLTVLT
notes: L-CDR2 variant of GKB101; also called SH/IL antibody
B5: the binding result in test [2], in test [4] and in test [3] was “binds” throughout.

B6: H54L (antibody, V domains shown)
VH: EVQLLESGGGLVQPGGSLRLSCAASGFTFSSYDMSWVRQAPGKGLEWVSAISSGGSSIYYADSVKGRFTISRDNSKNTLYLQMNSLRAEDTAVYYCARDVAWDMLGDFDYWGQGTLVTVSS
VL: QSVLTQPPSASGTPGQRVTISCTGSSSNIGSNYVYWYQQLPGTAPKLLIYANSLRPSGVPDRFSGSKSGTSASLAISGLRSEDEADYYCGAWDDSLSAYVFGGGTKLTVLT
notes: L-CDR2 variant of GKB101; also called H54L antibody
As to B6, the Kd – broadly, a measure of binding affinity in units of concentration – in test [5] was around 1 pM. The binding result in test [4] and in test [3] was “binds” each time.

B7: SH/LL (antibody, V domains shown)
VH: EVQLLESGGGLVQPGGSLRLSCAASGFTFSSYDMSWVRQAPGKGLEWVSAISSGGSSIYYADSVKGRFTISRDNSKNTLYLQMNSLRAEDTAVYYCARDVAWDMLGDFDYWGQGTLVTVSS
VL: QSVLTQPPSASGTPGQRVTISCTGSSSNIGSNYVYWYQQLPGTAPKLLIYANLLRPSGVPDRFSGSKSGTSASLAISGLRSEDEADYYCGAWDDSLSAYVFGGGTKLTVLT
notes: L-CDR2 variant of GKB101; also called SH/LL antibody
As to B7, the binding result in test [2], in test [4] and in test [3] was “binds” each time.

B8: S53T (antibody, V domains shown)
VH: EVQLLESGGGLVQPGGSLRLSCAASGFTFSSYDMSWVRQAPGKGLEWVSAISSGGSSIYYADSVKGRFTISRDNSKNTLYLQMNSLRAEDTAVYYCARDVAWDMLGDFDYWGQGTLVTVSS
VL: QSVLTQPPSASGTPGQRVTISCTGSSSNIGSNYVYWYQQLPGTAPKLLIYANTHRPSGVPDRFSGSKSGTSASLAISGLRSEDEADYYCGAWDDSLSAYVFGGGTKLTVLT
notes: L-CDR2 variant of GKB101; also called S53T antibody
Consider B8, for which the binding result in test [2], in test [4] and in test [3] was “binds” each time.

B9: SH/QL (antibody, V domains shown)
VH: EVQLLESGGGLVQPGGSLRLSCAASGFTFSSYDMSWVRQAPGKGLEWVSAISSGGSSIYYADSVKGRFTISRDNSKNTLYLQMNSLRAEDTAVYYCARDVAWDMLGDFDYWGQGTLVTVSS
VL: QSVLTQPPSASGTPGQRVTISCTGSSSNIGSNYVYWYQQLPGTAPKLLIYANQLRPSGVPDRFSGSKSGTSASLAISGLRSEDEADYYCGAWDDSLSAYVFGGGTKLTVLT
notes: L-CDR2 variant of GKB101; also called SH/QL antibody
Consider B9, for which the Kd in test [6], in test [7] and in test [5] was around 1 pM in each case.
